Consider 4 molecules from publication PMC3763426, “Genetic and structural validation of Aspergillus fumigatus N-acetylphosphoglucosamine mutase as an antifungal target” (Bioscience Reports, 2013).

Data set [1] has as its target T1, AfAGM1 (A. fumigatus N-acetylphosphoglucosamine mutase) (Aspergillus fumigatus, UniProt Q4WJF0, DEL85-101).
T1 construct: gene AFUA_1G06210; deletion of VSSYGTFDGGMKGEFAD, residues 85–101 of XP_750370 (likely alternative splicing); GST tag cleaved; pSer69
The data set can be described thus: enzyme inhibition kinetics, Lineweaver–Burk plot. Type of data set: biochemical.

In data set [2] the target is T1, AfAGM1 (A. fumigatus N-acetylphosphoglucosamine mutase). The data set can be described thus: direct HPAEC-PAD enzyme assay, […] Glc-1P. Format: biochemical.
Data set [3] concerns CC(=O)N[C@H]1C(O)O[C@H](COP(=O)(O)O)[C@@H](O)[C@@H]1O. As to the kind of experiment: purified protein. The conditions noted are these: Mg2+.
The test system of data set [4] is O=P(O)(O)O[C@H]1O[C@H](CO)[C@@H](O)[C@H](O)[C@H]1O. As to the kind of experiment: purified protein. The settings on record: Mg2+.

T1 sequence (Q4WJF0 entry or part of it DEL85-101): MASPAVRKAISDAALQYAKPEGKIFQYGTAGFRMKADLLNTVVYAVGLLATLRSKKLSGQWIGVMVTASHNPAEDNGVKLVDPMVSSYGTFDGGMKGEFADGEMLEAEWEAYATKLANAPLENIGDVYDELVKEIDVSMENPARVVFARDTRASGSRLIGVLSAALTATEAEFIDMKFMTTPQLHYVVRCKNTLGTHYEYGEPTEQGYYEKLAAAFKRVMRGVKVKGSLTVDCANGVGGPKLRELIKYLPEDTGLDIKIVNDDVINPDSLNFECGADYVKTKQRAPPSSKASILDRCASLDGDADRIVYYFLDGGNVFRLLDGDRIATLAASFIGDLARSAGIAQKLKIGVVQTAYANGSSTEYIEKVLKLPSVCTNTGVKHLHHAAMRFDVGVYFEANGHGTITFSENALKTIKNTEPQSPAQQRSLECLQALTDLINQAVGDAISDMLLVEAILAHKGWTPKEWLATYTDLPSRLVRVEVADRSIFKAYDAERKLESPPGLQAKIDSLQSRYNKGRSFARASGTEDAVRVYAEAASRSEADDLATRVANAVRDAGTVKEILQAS

The Ki is the equilibrium dissociation constant of an inhibitor or competing ligand from its target. A lower Ki goes with a stronger hold on the target. `Nc1ccc(O)c2c1C(=O)c1c(O)ccc(N)c1C2=O` [compound 1, 1,5-diamino-4,8-dihydroxyanthraquinone]: affinity in data set [1] was put at a Ki of 300 ± 13 µM.

The IC50 is the midpoint of a concentration-inhibition curve. A high value points to a need for much substance. In turn, `NC(Cc1cc(O)c(O)cc1O)C(=O)O` (racemic) [compound 3, 6-hydroxy-DL-DOPA] gave a concentration for half-maximal inhibition (IC50) in data set [2] of 58 ± 4 µM.

For orientation: Km means the substrate concentration at which the rate is half of its maximum. One may read the kcat as the number of substrate molecules converted per active site and unit of time at saturation. What is called kcat/Km is the second-order rate constant that governs catalysis at low substrate concentration. As for “AfAGM1 (A. fumigatus N-acetylphosphoglucosamine mutase) (Aspergillus fumigatus Af293; DEL85-101)”, in data set [3], the Michaelis constant (Km) stood at 25 ± 8 µM, the turnover number (kcat) came out at 0.21 s⁻¹ and the kcat/Km is 8400 M⁻¹ s⁻¹. In data set [4], the Michaelis-Menten constant (Km) worked out at 1200 ± 100 µM, the kcat was determined as 37.6 s⁻¹ and the specificity constant (kcat/Km) came out at 31300 M⁻¹ s⁻¹.

Consider `Cc1nc(/N=N/c2ccc(C(=O)O)cc2)c(COP(=O)(O)O)c(C=O)c1O` [compound 4, tri-sodium 4-[(2z)-2-[4-formyl-6-metyl-5-oxo-3-(phosphonatooxymetyl)-pyridin-2-ylidene] hydrazinyl] benzoate], for which, in data set [2], the IC50 came out at 7.1 ± 0.2 µM.
